Assay [1] deals with T1, recombinant human LAG-3-his protein (Novoprotein) (human, UniProt P18627 23-450).
T1 construct: Bought; also called huLAG-3; not shown: His tag
T1 sequence (looked up): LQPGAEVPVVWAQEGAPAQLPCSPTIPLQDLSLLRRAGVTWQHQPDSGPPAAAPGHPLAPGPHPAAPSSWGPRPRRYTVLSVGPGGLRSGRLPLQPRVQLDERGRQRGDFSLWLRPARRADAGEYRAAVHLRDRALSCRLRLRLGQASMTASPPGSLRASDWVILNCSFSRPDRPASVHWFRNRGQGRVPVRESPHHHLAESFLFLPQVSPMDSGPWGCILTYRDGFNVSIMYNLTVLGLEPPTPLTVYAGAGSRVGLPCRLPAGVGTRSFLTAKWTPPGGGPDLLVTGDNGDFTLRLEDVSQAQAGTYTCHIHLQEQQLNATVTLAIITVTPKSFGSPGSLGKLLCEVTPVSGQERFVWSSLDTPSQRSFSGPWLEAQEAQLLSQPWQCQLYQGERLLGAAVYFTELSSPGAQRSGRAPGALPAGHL
As to the kind of experiment: BLI Octet, Ab on AHC sensor, huLAG-3-his; test group 3. The procedure:
(§1) All 9 humanized antibodies (Table 25) and a chimeric antibody having the parental murine VH and VL domains (mAb747c) were ranked by dissociation rate constant (koff). Briefly, antibodies were characterized for affinities and binding kinetics by Octet RED96 biolayer interferometry (Pall FortéBio LLC). Antibodies were captured by Anti-HIgG Fc Capture (AHC) Biosensors (Pall) at a concentration of 100 nM for 30 seconds. Sensors were then dipped into running buffer (1× pH7.2 PBS, 0.05% Tween 20, 0.1% BSA) for 60 seconds to check baseline. Binding was measured by dipping sensors into a single concentration of recombinant human LAG-3-his protein (Novoprotein). Dissociation was followed by dipping sensors into running buffer for 1200 seconds. The association and dissociation curves were fitted to a 1:1 Langmuir binding model using FortéBio Data Analysis software (Pall).
(§2) All 13 humanized antibodies (Table 39) and chimeric anti-LAG-3 antibody mAb747c having the parental murine VH and VL domains were ranked by dissociation rate constant (koff) in the same manner described in Example 9.1 supra. In each test group, the off-rates of antibodies were able to be compared with that of mAb747c. The off-rate ratios were calculated by the off-rate of antibody to that of mAb747c of its group and were compared all together. The lower the ratio was, the higher was the affinity of the antibody.

Assay [2] addresses T1, recombinant human LAG-3-his protein …. The experiment in a line: BLI Octet, Ab on AHC sensor, huLAG-3-his; test group 2. The procedure: as §1
(§3) The seven Fab clones were converted to full IgG proteins. Briefly, the VH and VL genes were produced synthetically and then cloned into vectors containing coding sequences for the human IgG1 and human kappa constant domains, respectively. The heavy chain and cognate light chain plasmids were co-transfected into HEK 293E cells, individually. After approximately six days of post-transfection cell culture, the supernatants were harvested and subjected to Protein A affinity chromatography. The affinity of purified antibodies was ranked by Octet® RED96 biolayer interferometry (see, Example 9.1, supra).

For assay [3] the target is unchanged. The experiment in a line: BLI Octet, Ab on AHC sensor, huLAG-3-his analyte. The procedure:
as §1

For assay [4], the target named is T2, human PD-1 ECD/Fc fusion protein (human).
T2 construct: also called huPD-1/Fc; HuPD-1 ECD/Fc
T2 sequence (chain, as listed by the source limits assumed): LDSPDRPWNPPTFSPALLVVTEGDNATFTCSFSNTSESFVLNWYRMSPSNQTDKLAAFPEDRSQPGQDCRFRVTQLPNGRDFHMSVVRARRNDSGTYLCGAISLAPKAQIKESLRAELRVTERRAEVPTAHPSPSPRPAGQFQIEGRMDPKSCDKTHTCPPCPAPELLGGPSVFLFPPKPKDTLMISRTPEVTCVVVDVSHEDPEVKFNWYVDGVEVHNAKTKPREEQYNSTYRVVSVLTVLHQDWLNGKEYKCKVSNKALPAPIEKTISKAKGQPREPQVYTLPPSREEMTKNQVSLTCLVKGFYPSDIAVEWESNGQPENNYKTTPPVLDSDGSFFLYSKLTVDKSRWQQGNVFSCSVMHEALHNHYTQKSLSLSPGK
As to the kind of experiment: SPR Biacore, HuPD-1 ECD/Fc on chip, Ab analyte. Background: In SPR one partner is held on a chip, and binding of the other changes the refractive index at the surface.

Assay [5] deals with T3, human PD-1 expressed on cells (human, UniProt Q15116 25-288).
T3 construct: whole, on cells; also called CHO-K1/huPD-1; CHO-K1-hPD-1 cells
T3 sequence (Q15116 25-288): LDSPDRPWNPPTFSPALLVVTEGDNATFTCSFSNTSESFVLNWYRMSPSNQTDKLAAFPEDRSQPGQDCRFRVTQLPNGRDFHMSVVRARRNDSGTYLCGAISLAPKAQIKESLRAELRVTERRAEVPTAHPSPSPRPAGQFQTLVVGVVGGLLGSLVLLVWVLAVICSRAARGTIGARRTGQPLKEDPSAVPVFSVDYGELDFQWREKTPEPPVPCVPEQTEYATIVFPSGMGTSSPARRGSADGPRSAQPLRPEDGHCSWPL
As to the kind of experiment: cell RBA FACS, CHO-K1-huPD1; competitor biotin-PD-L2/Fc. On the procedure:
(§4) All 15 humanized antibodies and the chimeric antibody (mAb709c) were characterized by binding ELISA and cell-based RBA. For cell-based RBA, 2×10⁵ cells/well of CHO-K1-huPD1 cells were added to a pre-blocked 96-well round-bottomed plate and after washing, 50 μl antibodies with diluted concentration ranging from 0.064 nM to 200 nM were added to each well. Next, 50 μl of 60 μg/ml biotinylated PD-L1/Fc or biotinylated PD-L2/Fc protein were added. After gentle mixing and incubation at 4° C., the cells were washed and stained by Alexa Fluor™ 488 streptavidin solution (1:1000, ThermoFisher Scientific; Cat. No. S32354). Signals were readout by FACS and curves were fitted by GraphPad software. […] The association and dissociation rate constants, k (M⁻¹ s⁻¹) and koff(s⁻¹), respectively, were determined by making kinetic binding measurements at five different concentrations of human PD-1-His protein at a continuous flow rate of 30 μl/min. The equilibrium dissociation constant KD (M) of the reaction between antibodies and related target proteins was calculated from the kinetic rate constants using the formula KD=koff/kₒₙ. HumAb709-8 had minimal back-mutation(s) while maintaining to the greatest extent the affinity of the parental variable domains on chimeric mAb709c.

Assay [6] addresses T3, human PD-1 expressed on cells. The experiment in a line: cell RBA FACS, CHO-K1-huPD1; competitor biotin-PD-L1/Fc. The procedure:
as §4

In assay [7] the target is T2, human PD-1 ECD/Fc fusion protein. The experiment in a line: SPR Biacore, HuPD-1 ECD/Fc and HuLAG-3 ECD/Fc both on chip, Ab analyte.
Assay [8] concerns the target T4, human PD-1-His protein (human, UniProt Q15116 25-167, limits assumed).
T4 construct: also called huPD-1; not shown: His tag
As to the kind of experiment: SPR Biacore, Ab captured, huPD-1-His analyte. On the procedure: as §4

The target of assay [9] is T1, recombinant human LAG-3-his protein …. The experiment in a line: BLI Octet, Ab on AHC sensor, huLAG-3-his; test group 1. The procedure: as §1, §3
In general terms: Biolayer interferometry detects binding as a change in optical thickness at a sensor tip.

For assay [10] the target is unchanged. As to the kind of experiment: BLI Octet, Ab on AHC sensor, huLAG-3-his; test group 2. The procedure:
as §1, §2
This is another data set of the same source.

Assay [11] shares this target. The experiment in a line: BLI Octet, Ab on AHC sensor, huLAG-3-his; test group 4. On the procedure:
as §1, with “All 18” for “All 9”, “(Table 34)” for “(Table 25)”, “by Octet®RED96” for “by Octet RED96”, “(Pall ForteBio” for “(Pall FortéBio”, “by Anti-hIgG” for “by Anti-HIgG”, “(Pall). In each test group, the off-rates of antibodies were able to be compared with that of mAb747c. The off-rate ratios were calculated by the off-rate of antibody to that of mAb747c of its group and were compared all together. The lower the ratio was, the higher was the affinity of the antibody.” for “(Pall).”

The target is the same in assay [12]. As to the kind of experiment: BLI Octet, Ab on AHC sensor, huLAG-3-his; test group 1. The procedure:
as §1, §2
This is another data set of the same source.

For assay [13] the target is unchanged. The experiment in a line: BLI Octet, Ab on AHC sensor, huLAG-3-his; test group 2. On the procedure:
as §1, with “All 18” for “All 9”, “(Table 34)” for “(Table 25)”, “by Octet®RED96” for “by Octet RED96”, “(Pall ForteBio” for “(Pall FortéBio”, “by Anti-hIgG” for “by Anti-HIgG”, “(Pall). In each test group, the off-rates of antibodies were able to be compared with that of mAb747c. The off-rate ratios were calculated by the off-rate of antibody to that of mAb747c of its group and were compared all together. The lower the ratio was, the higher was the affinity of the antibody.” for “(Pall).”
The source holds these as a separate data set.

Assay [14] shares this target. The experiment in a line: BLI Octet, Ab on AHC sensor, huLAG-3-his; test group 1. On the procedure:
as §1, with “All 18” for “All 9”, “(Table 34)” for “(Table 25)”, “by Octet®RED96” for “by Octet RED96”, “(Pall ForteBio” for “(Pall FortéBio”, “by Anti-hIgG” for “by Anti-HIgG”, “(Pall). In each test group, the off-rates of antibodies were able to be compared with that of mAb747c. The off-rate ratios were calculated by the off-rate of antibody to that of mAb747c of its group and were compared all together. The lower the ratio was, the higher was the affinity of the antibody.” for “(Pall).”
The source holds these as a separate data set.

The target is the same in assay [15]. As to the kind of experiment: BLI Octet, Ab on AHC sensor, huLAG-3-his; test group 3. The procedure:
as §1, with “All 18” for “All 9”, “(Table 34)” for “(Table 25)”, “by Octet®RED96” for “by Octet RED96”, “(Pall ForteBio” for “(Pall FortéBio”, “by Anti-hIgG” for “by Anti-HIgG”, “(Pall). In each test group, the off-rates of antibodies were able to be compared with that of mAb747c. The off-rate ratios were calculated by the off-rate of antibody to that of mAb747c of its group and were compared all together. The lower the ratio was, the higher was the affinity of the antibody.” for “(Pall).”
This is another data set of the same source.

T4 sequence (Q15116 25-167 limits assumed): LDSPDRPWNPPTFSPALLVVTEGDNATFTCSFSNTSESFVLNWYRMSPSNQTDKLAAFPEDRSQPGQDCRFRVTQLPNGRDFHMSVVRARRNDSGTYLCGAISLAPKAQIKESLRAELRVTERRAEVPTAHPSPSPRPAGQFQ

B1: HumAb747V-73 (antibody, human IgG1, V domains shown)
VH: EVQLVQSGAEVKKPGATVKLSCTASGFNIKDDYMHWVKQRPEQGLDWIGWIVPRNGNTVYASKFQGKATITADTSTNTAYLELSSLRSEDTAVYYCTVYGDYWGQGTTVTVSS
VL: DIQMTQSPSSLSASVGDRVTITCRASQEISGYLSWLQQKPGGAIKRLIYAASTLDSGVPSRFSGSRSGSDYTLTISSLQPEDFADYYCLQYASYPLTFGQGTKLELK
notes: engineered HumAb747-60 variant; human IgG1/kappa constant domains
Regarding B1, in assay [1], the koff (as a rule, the rate constant with which the complex falls apart) came to 0.000321 s⁻¹ and the “off-rate ratio to that of mAb747c” value was 51%.

B2: HumAb747-39 (antibody, human IgG1, V domains shown)
VH: EVQLVQSGAEVKKPGASVKVSCKASDFNIKDDYMHWVRQAPGQGLEWIGWIVPENGNTEYASKFQGRVTITADTSINTAYMELSRLRSDDTAVYYCTVYGDYWGQGTTVTVSS
VL: DIQMTQSPSSLSASVGDRVTINCRASQEISGYLSWLQQKPEGTIKRLIYAASTLDSGVPSRFSGSRSGSDYTLTISSLQPEDFATYYCLQYASYPLTFGGGTKVEIK
notes: humanized mAb747; human IgG1 and human kappa constant domains
Regarding B2, in assay [2], the koff worked out at 0.00391 s⁻¹ and the “off-rate ratio to that of mAb747c” value worked out at 240%. Besides, the koff in [3] worked out at 0.00114 s⁻¹.

B3: HumAb747-42 (antibody, human IgG1, V domains shown)
VH: EVQLVQSGAEVKKPGASVKVSCKASDFNIKDDYMHWVRQAPGQGLEWIGWIVPENGNTEYASKFQGKATITADTSINTAYMELSRLRSDDTAVYYCTVYGDYWGQGTTVTVSS
VL: DIQMTQSPSSLSASVGDRVTINCRASQEISGYLSWLQQKPEGTIKRLIYAASTLDSGVPSRFSGSRSGSDYTLTISSLQPEDFATYYCLQYASYPLTFGGGTKVEIK
notes: as for B2
With B3, in assay [2], the dissociation rate constant (koff) came to 0.00428 s⁻¹ and the “off-rate ratio to that of mAb747c” value is 263%. For the same molecule, in assay [3], the koff was 0.00083 s⁻¹ and the “off-rate constant, fold of the chimeric control mAb747c” value stood at 2.2 fold.

B4: mAb709c (antibody, V domains shown)
VH: EVKLVESGGGLVKPGGSLKLSCAASGFTFSFYTMSWVRQTPEKRLEWVATISGGGRDTYYPDSVKGRFTISRDNAKNTLYLHMSSLRSEDTALYYCAGQGGNYLFAYWGQGTLVTVSA
VL: DIVMTQSHKFMSTSVGDSVTITCKASQDVNTVVAWYQQKPGQSLKVLISWASTRHTGVPARFTGSGSGTDYTLTISSVQAEDLALYYCQQHYTTPYTFGGGTQLEIK
notes: also called HumAb709c
On to B4, for which the equilibrium dissociation constant (Kd) (usually the concentration at which binding is half-saturated) turned out to be 0.035 nM in [4], 0.0337 nM in [7] and 0.567 nM in [8]. The koff in assay [4] is 8.82e-06 s⁻¹; in [7] it was 9.72e-06 s⁻¹; in [8] it was 6.88e-05 s⁻¹. For the same molecule, the association rate constant (kon) – broadly, the rate constant with which the complex forms – in [4] was determined as 252000 M⁻¹ s⁻¹; in assay [7] it was 288000 M⁻¹ s⁻¹; in [8], 121000 M⁻¹ s⁻¹. The results for the IC50 in assay [5] and in assay [6] were 0.56 nM and 0.62 nM, respectively.

B5: mAb747c (antibody, V domains shown)
VH: EVQLQQSGAELVRPGASVKLSCTASDFNIKDDYMHWVKQRPEQGLDWIGWIVPENGNTEYASKFQGKATITADTSSNTAYLQLSSLTSEDTAVYYCTVYGDYWGQGTTLTVSS
VL: DIQMTQSPSSLSASLGERVSLNCRASQEISGYLSWLQQKPDGTIKRLIYAASTLDSGVPKRFSGSRSGSDYSLTISSLESEDFAAYYCLQYASYPLTFGAGTKLELK
notes: also called mAb717c
B5: the koff was determined as 0.0015 s⁻¹ in [9]; 0.000676 s⁻¹ in [10]; 0.000631 s⁻¹ in assay [1]; 0.00053 s⁻¹ in assay [11]; 0.000615 s⁻¹ in assay [12]; 0.00135 s⁻¹ in [13]. Further, the koff in assay [2] was determined as 0.00163 s⁻¹; in assay [3], 0.000377 s⁻¹; in assay [14] it was 0.00136 s⁻¹; in assay [15], 0.00123 s⁻¹. Moreover, the “off-rate ratio to that of mAb747c” value in assay [9], in [10], in assay [1], in assay [11], in assay [12] and in [13] was 100% each time. Besides, the “off-rate ratio to that of mAb747c” value in assay [2], in assay [14] and in assay [15] was 100% throughout.

The record behind these values is US20210188980A1 (SHANGHAI EPIMAB BIOTHERAPEUTICS, published 2021).
